According to patent US20160264649A1:

How the values were obtained:
Experiment in all cases: cell-based or functional assay
[1] = biological target: HIV-1 92BR020 Env (HIV-1)
[2] = biological target: HIV-1 92TH021 Env (HIV-1)
[3] = biological target: HIV-1 93IN905 Env (HIV-1)
[4] = biological target: HIV-1 93UG077 Env (HIV-1)
[5] = biological target: HIV-1 97ZA012 Env on pseudovirus (HIV-1)
[6] = biological target: HIV-1 98CN009 Env on pseudovirus (HIV-1)
[7] = biological target: HIV-1 98IN022 Env on pseudovirus (HIV-1)
[8] = biological target: HIV-1 APV_17 Env on pseudovirus (HIV-1)
[9] = biological target: HIV-1 APV_6 Env on pseudovirus (HIV-1)
[10] = biological target: HIV-1 CAAN.A2 (Acute) Env on pseudovirus (HIV-1)
[11] = biological target: HIV-1 IAVI-C22 Env (HIV-1)
[12] = biological target: HIV-1 JRCSF Env (HIV-1) (UniProt P20871)
[13] = biological target: HIV-1 JRCSF Env on pseudovirus (HIV-1) (UniProt P20871)
[14] = biological target: HIV-1 LAVIC_18 Env on pseudovirus (HIV-1)
[15] = biological target: HIV-1 MGRM-AE-003 Env (HIV-1)
[16] = biological target: HIV-1 MGRM-AE-005 Env (HIV-1)
[17] = biological target: HIV-1 MGRM-AE-007 Env (HIV-1)
[18] = biological target: HIV-1 MGRM-AG-002 Env (HIV-1)
[19] = biological target: HIV-1 MGRM-AG-003 Env (HIV-1)
[20] = biological target: HIV-1 MGRM-AG-008 Env (HIV-1)
[21] = biological target: HIV-1 MGRM-AG-011 Env (HIV-1)
[22] = biological target: HIV-1 MGRM-AG-012 Env (HIV-1)
[23] = biological target: HIV-1 MGRM-C-002 Env on pseudovirus (HIV-1)
[24] = biological target: HIV-1 MGRM-C-022 Env on pseudovirus (HIV-1)
[25] = biological target: HIV-1 MGRM-C-024 Env on pseudovirus (HIV-1)
[26] = biological target: HIV-1 MGRM-Chronic-B-001 Env on pseudovirus (HIV-1)
[27] = biological target: HIV-1 MGRM-Chronic-B-010 Env on pseudovirus (HIV-1)
[28] = biological target: HIV-1 MGRM-Chronic-B-020 Env on pseudovirus (HIV-1)
[29] = biological target: HIV-1 MGRM-D-001 Env (HIV-1)
[30] = biological target: HIV-1 MGRM-D-005 Env (HIV-1)
[31] = biological target: HIV-1 MGRM-D-012 Env (HIV-1)
[32] = biological target: HIV-1 MGRM-D-016 Env (HIV-1)
[33] = biological target: HIV-1 MGRM-D-024 Env (HIV-1)
[34] = biological target: HIV-1 MGRM-D-029 Env (HIV-1)
[35] = biological target: HIV-1 MGRM-F1-008 Env (HIV-1)
[36] = biological target: HIV-1 MGRM-F1-012 Env (HIV-1)
[37] = biological target: HIV-1 MGRM-F1-014 Env (HIV-1)
[38] = biological target: HIV-1 MGRM-F1-016 Env (HIV-1)
[39] = biological target: HIV-1 MGRM-F1-018 Env (HIV-1)
[40] = biological target: HIV-1 MGRM-F1-020 Env (HIV-1)
[41] = biological target: HIV-1 MGRM-F1-021 Env (HIV-1)
[42] = biological target: HIV-1 MGRM-G-001 Env (HIV-1)
[43] = biological target: HIV-1 MGRM-G-013 Env (HIV-1)
[44] = biological target: HIV-1 MGRM-G-015 Env (HIV-1)
[45] = biological target: HIV-1 MGRM-G-016 Env (HIV-1)
[46] = biological target: HIV-1 MGRM-G-019 Env (HIV-1)
[47] = biological target: HIV-1 MGRM-G-024 Env (HIV-1)
[48] = biological target: HIV-1 MGRM-G-027 Env (HIV-1)
[49] = biological target: HIV-1 QH0692.42 (Acute) Env on pseudovirus (HIV-1)
[50] = biological target: HIV-1 SF162 Env on pseudovirus (HIV-1) (UniProt P19550)
[51] = biological target: HIV-1 TRO.11 (Acute) Env on pseudovirus (HIV-1)

1495_C14 (PGC14) (antibody)
neutralization IC50 [1]: 0.637 µg/mL | IC50 (µg/ml), pseudovirus neutralization [2]: > 50 µg/mL | neutralization IC50 [2]: > 50 µg/mL | neutralization IC50 [3]: > 50 µg/mL | neutralization IC50 [4]: > 50 µg/mL | IC50 [5]: > 50 µg/mL | IC50 [6]: 43 µg/mL | IC50 [7]: 9 µg/mL | IC50 [8]: > 50 µg/mL | IC50 [9]: 23 µg/mL | IC50 [10]: > 50 µg/mL | neutralization IC50 [11]: 9.5 µg/mL | neutralization IC50 [12]: > 50 µg/mL | IC50 [13]: 15 µg/mL | IC50 [14]: > 50 µg/mL | IC50 (µg/ml), pseudovirus neutralization [15]: > 50 µg/mL | IC50 (µg/ml), pseudovirus neutralization [16]: > 50 µg/mL | IC50 (µg/ml), pseudovirus neutralization [17]: > 50 µg/mL | IC50 (µg/ml), pseudovirus neutralization [18]: > 50 µg/mL | IC50 (µg/ml), pseudovirus neutralization [19]: > 50 µg/mL | IC50 (µg/ml), pseudovirus neutralization [20]: 45 µg/mL | IC50 (µg/ml), pseudovirus neutralization [21]: > 50 µg/mL | IC50 (µg/ml), pseudovirus neutralization [22]: > 50 µg/mL | IC50 [23]: > 50 µg/mL | IC50 [24]: > 50 µg/mL | IC50 [25]: > 50 µg/mL | IC50 [26]: > 50 µg/mL | IC50 [27]: 27 µg/mL | IC50 [28]: > 50 µg/mL | IC50 (µg/ml), pseudovirus neutralization [29]: > 50 µg/mL | IC50 (µg/ml), pseudovirus neutralization [30]: > 50 µg/mL | IC50 (µg/ml), pseudovirus neutralization [31]: > 50 µg/mL | IC50 (µg/ml), pseudovirus neutralization [32]: > 50 µg/mL | IC50 (µg/ml), pseudovirus neutralization [33]: > 50 µg/mL | IC50 (µg/ml), pseudovirus neutralization [34]: > 50 µg/mL | IC50 (pseudovirus neutralization) [35]: > 50 µg/mL | IC50 (pseudovirus neutralization) [36]: > 50 µg/mL | IC50 (pseudovirus neutralization) [37]: > 50 µg/mL | IC50 (pseudovirus neutralization) [38]: > 50 µg/mL | IC50 (pseudovirus neutralization) [39]: > 50 µg/mL | IC50 (pseudovirus neutralization) [40]: > 50 µg/mL | IC50 (pseudovirus neutralization) [41]: 46 µg/mL | IC50 (µg/ml), pseudovirus neutralization [42]: > 50 µg/mL | IC50 (µg/ml), pseudovirus neutralization [43]: > 50 µg/mL | IC50 (µg/ml), pseudovirus neutralization [44]: > 50 µg/mL | IC50 (µg/ml), pseudovirus neutralization [45]: > 50 µg/mL | IC50 (µg/ml), pseudovirus neutralization [46]: > 50 µg/mL | IC50 (µg/ml), pseudovirus neutralization [47]: > 50 µg/mL | IC50 (µg/ml), pseudovirus neutralization [48]: > 50 µg/mL | IC50 [49]: > 50 µg/mL | IC50 [50]: < 0.0025 µg/mL | IC50 [51]: > 50 µg/mL

b12 (antibody)
neutralization IC50 [1]: 27.5 µg/mL | neutralization IC90 [1]: > 50 µg/mL | neutralization IC50 [2]: 9.99 µg/mL | neutralization IC90 [2]: > 50 µg/mL | neutralization IC50 [3]: 34.1 µg/mL | neutralization IC90 [3]: > 50 µg/mL | neutralization IC50 [4]: 41.1 µg/mL | neutralization IC90 [4]: > 50 µg/mL | IC50 [5]: > 50 µg/mL | IC50 [6]: 1.52 µg/mL | IC50 [7]: 0.42 µg/mL | IC50 [8]: > 50 µg/mL | IC50 [9]: > 50 µg/mL | IC50 [10]: > 50 µg/mL | neutralization IC50 [11]: 3.6 µg/mL | neutralization IC90 [11]: 29.6 µg/mL | neutralization IC50 [12]: 0.16 µg/mL | neutralization IC90 [12]: 1.17 µg/mL | IC50 [13]: 0.21 µg/mL | IC50 [14]: > 50 µg/mL | IC50 (µg/ml), pseudovirus neutralization [15]: > 50 µg/mL | IC50 (µg/ml), pseudovirus neutralization [16]: 0.63 µg/mL | IC50 (µg/ml), pseudovirus neutralization [17]: > 50 µg/mL | IC50 (µg/ml), pseudovirus neutralization [18]: 0.89 µg/mL | IC50 (µg/ml), pseudovirus neutralization [19]: > 50 µg/mL | IC50 (µg/ml), pseudovirus neutralization [20]: > 50 µg/mL | IC50 (µg/ml), pseudovirus neutralization [21]: > 50 µg/mL | IC50 (µg/ml), pseudovirus neutralization [22]: 10.4 µg/mL | IC50 [23]: > 50 µg/mL | IC50 [24]: > 50 µg/mL | IC50 [25]: > 50 µg/mL | IC50 [26]: 0.75 µg/mL | IC50 [27]: > 50 µg/mL | IC50 [28]: 6.16 µg/mL | IC50 (µg/ml), pseudovirus neutralization [29]: > 50 µg/mL | IC50 (µg/ml), pseudovirus neutralization [30]: > 50 µg/mL | IC50 (µg/ml), pseudovirus neutralization [31]: 0.13 µg/mL | IC50 (µg/ml), pseudovirus neutralization [32]: 1.12 µg/mL | IC50 (µg/ml), pseudovirus neutralization [33]: 5.92 µg/mL | IC50 (µg/ml), pseudovirus neutralization [34]: > 50 µg/mL | IC50 (pseudovirus neutralization) [35]: > 50 µg/mL | IC50 (pseudovirus neutralization) [36]: > 50 µg/mL | IC50 (pseudovirus neutralization) [37]: > 50 µg/mL | IC50 (pseudovirus neutralization) [38]: > 50 µg/mL | IC50 (pseudovirus neutralization) [39]: > 50 µg/mL | IC50 (pseudovirus neutralization) [40]: > 50 µg/mL | IC50 (pseudovirus neutralization) [41]: > 50 µg/mL | IC50 (µg/ml), pseudovirus neutralization [42]: > 50 µg/mL | IC50 (µg/ml), pseudovirus neutralization [43]: > 50 µg/mL | IC50 (µg/ml), pseudovirus neutralization [44]: > 50 µg/mL | IC50 (µg/ml), pseudovirus neutralization [45]: > 50 µg/mL | IC50 (µg/ml), pseudovirus neutralization [46]: 3.77 µg/mL | IC50 (µg/ml), pseudovirus neutralization [47]: 2.38 µg/mL | IC50 (µg/ml), pseudovirus neutralization [48]: > 50 µg/mL | IC50 [49]: 0.73 µg/mL | IC50 [50]: 0.02 µg/mL | IC50 [51]: > 50 µg/mL
